From article PMC5465497
Blank lines part the entries; values can stand above or below the substance they belong to.

Experiments:
Herceptin IgG (human) [1] = experiment: SPR; antibody covalently coupled onto a CM5 sensor chip, Fc receptor extracellular domain injected; HBS-EP+ running buffer; room temperature; steady-state fitting model; no regeneration
Herceptin IgG (human) [2] = experiment: SPR; antibody captured via Protein A, FcγR1a injected; room temperature; 1:1 Langmuir model with Rmax set to local; regeneration with 10 mM glycine pH 1.5
[3] = target: SEED Fc-like chain, the other SEED CH3 domain (human); experiment: non-reduced SDS-PAGE with scanning densitometry of co-expressed chains (heterodimerization assay); two Fc-like chains co-transfected at a 1:1 ratio into HEK293-EBNA cells; Protein A-purified preparation; 4-12% gel, Coomassie staining; bands below the 49-kDa marker excluded
[4] = target: BEAT 2/3 (A): CH2 γ1 - BEAT CH3 (A) γ3; (B): CH2 γ1 - BEAT CH3 (B) γ1 (human); experiment: SPR; antibody covalently coupled onto a CM5 sensor chip, Fc receptor extracellular domain injected; HBS-EP+ running buffer; room temperature; steady-state fitting model; no regeneration
[5] = target: BEAT 2/3 (A): CH2 γ1 - BEAT CH3 (A) γ3; (B): CH2 γ1 - BEAT CH3 (B) γ1 D84.4Q (human); experiment: as above
[6] = target: BEAT 2/3 (A): CH2 γ3 - BEAT CH3 (A) γ3; (B): CH2 γ1 - BEAT CH3 (B) γ1 D84.4Q (human); experiment: as above
[7] = target: KiH (knobs-into-holes) Fc-like chain, second engineered CH3 domain (human); experiment: non-reduced SDS-PAGE with scanning densitometry of co-expressed chains (heterodimerization assay); two Fc-like chains co-transfected at a 1:1 ratio into HEK293-EBNA cells; Protein A-purified preparation; 4-12% gel, Coomassie staining; bands below the 49-kDa marker excluded
[8] = target: BEAT 2/3 (A): CH2 γ1 - BEAT CH3 (A) γ3; (B): CH2 γ1 - BEAT CH3 (B) γ1 (human); experiment: SPR; antibody covalently coupled onto a CM5 sensor chip, FcRn injected; HBS-EP+ adjusted to pH 6; room temperature; steady-state fitting model; regeneration with HBS-EP+ pH 7.4
[9] = target: BEAT 2/3 (A): CH2 γ1 - BEAT CH3 (A) γ3; (B): CH2 γ1 - BEAT CH3 (B) γ1 D84.4Q (human); experiment: as above
[10] = target: BEAT 2/3 (A): CH2 γ3 - BEAT CH3 (A) γ3; (B): CH2 γ1 - BEAT CH3 (B) γ1 (human); experiment: as above
[11] = target: BEAT 2/3 (A): CH2 γ3 - BEAT CH3 (A) γ3; (B): CH2 γ1 - BEAT CH3 (B) γ1 D84.4Q (human); experiment: as above
Herceptin IgG (human) [12] = experiment: as above
[13] = target: MI (CH3) AG/GA Fc-like chain, GA domain (IgG1 CH3 with positions 85.1 and 86 and their set exchanged for IgA CH3 residues) (human); experiment: non-reduced SDS-PAGE with scanning densitometry of co-expressed chains (heterodimerization assay); two Fc-like chains co-transfected at a 1:1 ratio into HEK293-EBNA cells; Protein A-purified preparation; 4-12% gel, Coomassie staining; bands below the 49-kDa marker excluded

- Kd (Herceptin IgG (human) [1]): 2000 nM
Substance: FcγR2a extracellular domain, variant H167 (from UniProt P12318 34-217) (receptor)

- Kd (Herceptin IgG (human) [2]): 0.138 nM
Substance: FcγR1a extracellular domain (from UniProt P12314 16-292) (receptor)

- heterodimer content [3]: 83%
Substance: SEED Fc-like chain, the SEED CH3 domain that has Trp 81 (domain or fragment)

- Kd [4]: 206 nM
- Kd [5]: 347 nM
- Kd [6]: 238 nM
- Kd (Herceptin IgG (human) [1]): 267 nM
Substance: FcγR3a extracellular domain, variant V176 (from UniProt P08637 17-208) (receptor)

- Kd (Herceptin IgG (human) [1]): 4270 nM
Substance: FcγR2b extracellular domain (from UniProt P31994 43-217) (receptor)

- heterodimer content [7]: 67%
Substance: KiH (knobs-into-holes) Fc-like chain, first engineered CH3 domain (domain or fragment)

- loss in HD rate against the heterodimer with Trp 81 [3]: 20%
Substance: SEED Fc-like chain with Trp 81 back mutated to threonine (domain or fragment)

- Kd [8]: 708 nM
- Kd [9]: 686 nM
- Kd [10]: 543 nM
- Kd [11]: 577 nM
- Kd (Herceptin IgG (human) [12]): 622 nM
Substance: FcRn extracellular domain (with beta-2-microglobulin) (from UniProt P55899 24-297; P61769 21-119) (receptor)

- loss in HD rate against the heterodimer with Trp 81 [13]: 4%
Substance: MI (CH3) AG/GA Fc-like chain, AG domain with Trp 81 back mutated to threonine (domain or fragment)
